Like-named read-outs stand apart in the source and are kept apart here. Ends that are not written are not given here. Peptide text beside a SMILES is read from it. * marks the point of attachment. Palmitoyl = CCCCCCCCCCCCCCCC(=O)*
How the values were obtained:
GLP-2 = biological target: T1, GLP-2 (Homo sapiens, UniProt O95838); assay: GLP-2 activity, cell-based cAMP assay (same method as Example 2); conditions: for GLP-2 activity Compared to GLP-2: Example 5, relative to GLP-2; for EC50: Example 5
T1 sequence (O95838 1-553): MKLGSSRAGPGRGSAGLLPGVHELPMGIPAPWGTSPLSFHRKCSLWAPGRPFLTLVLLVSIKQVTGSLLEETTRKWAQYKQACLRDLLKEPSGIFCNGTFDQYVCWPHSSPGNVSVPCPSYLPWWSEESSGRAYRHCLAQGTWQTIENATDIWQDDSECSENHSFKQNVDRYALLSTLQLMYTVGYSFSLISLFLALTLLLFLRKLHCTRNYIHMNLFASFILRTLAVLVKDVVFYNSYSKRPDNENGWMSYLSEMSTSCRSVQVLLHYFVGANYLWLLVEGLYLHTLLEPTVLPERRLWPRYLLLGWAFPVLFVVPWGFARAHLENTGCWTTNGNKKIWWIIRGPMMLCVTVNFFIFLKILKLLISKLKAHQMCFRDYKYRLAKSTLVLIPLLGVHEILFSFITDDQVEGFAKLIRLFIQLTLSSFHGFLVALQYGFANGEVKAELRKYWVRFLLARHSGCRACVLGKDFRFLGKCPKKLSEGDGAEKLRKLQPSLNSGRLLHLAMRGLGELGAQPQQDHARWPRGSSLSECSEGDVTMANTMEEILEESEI

GLP-1R = GLP-1R (Homo sapiens, UniProt P43220); assay: GLP-1 activation: cell-based cAMP assay in GLP-1R/CHO cells; conditions: Example 5, relative to Exendin-4
Chain of GLP-1R (P43220 24-463): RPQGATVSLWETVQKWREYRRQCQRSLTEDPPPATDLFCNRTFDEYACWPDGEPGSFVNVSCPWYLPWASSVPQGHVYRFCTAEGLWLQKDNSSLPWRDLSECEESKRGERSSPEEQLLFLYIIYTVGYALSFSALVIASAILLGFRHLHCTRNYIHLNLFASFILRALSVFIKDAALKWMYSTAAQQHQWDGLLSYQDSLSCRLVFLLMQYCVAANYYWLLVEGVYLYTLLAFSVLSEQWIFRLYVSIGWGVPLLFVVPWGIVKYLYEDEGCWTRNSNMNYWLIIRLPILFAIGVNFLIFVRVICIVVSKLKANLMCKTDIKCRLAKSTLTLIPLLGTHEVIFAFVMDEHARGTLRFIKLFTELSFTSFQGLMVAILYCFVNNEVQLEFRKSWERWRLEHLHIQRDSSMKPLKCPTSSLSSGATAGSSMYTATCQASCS

[1] = Mouse PK after single subcutaneous administration, LC-MS/MS of plasma; assay type: in vivo, mice
Protocol: Each of the experimental groups and the control was subcutaneously administered once to the dorsal area of a total of 12 mice using a 1 mL syringe equipped with a 26-gauge needle at a dose of 0.2 mg/5 mL/kg. After drug administration, approximately 0.04 to 0.05 mL of blood was collected per individual at the time scheduled for the orbital vein (4 mice were alternately sampled), and the blood collection times were 1, 2, 4, 8, 24 ,32 ,48, 56, 72, 96, and 120 hours. All plasma samples were analyzed using a self-developed LC-MS/MS assay. Pharmacokinetic analysis of blood drugs was performed using non-compartmental analysis, and analysis of pharmacokinetic parameters was performed using Phoenix WinNolin 64 (Version. 8.3.5 340).

C57BL/6 DIO mice [2] = assay: Diet-induced obesity mouse model: blood/serum biochemical tests (Example 3); assay type: in vivo; conditions: after 4 weeks, 0.20 mg/kg/dose (dose from Table 3)
Protocol: Here, the body weight and food intake were measured daily.
In addition, after the experiment was completed, blood and serum samples were obtained from each mouse model, and biochemical tests were performed for blood glucose, total cholesterol, high-density lipoprotein (HDL), low-density lipoprotein (LDL), and triglycerides.

C57BL/6 DIO mice [3] = assay: Diet-induced obesity mouse model: body weight and food intake (Example 3); assay type: in vivo; conditions: 4 weeks administration, 0.20 mg/kg/dose
[4] = in vivo; cited from earlier work
[5] = biological target: GLP-1R (on GLP-1R/CHO cells, DiscoverX 95-0062C2) (UniProt P43220); assay: cell-based or functional assay
Chain of GLP-1R (on GLP-1R/CHO cells, DiscoverX 95-0062C2) (UniProt P43220) (P43220 24-463 limits assumed): as the sequence (P43220 24-463) above

[6] = biological target: T2, GLP-1R (on GLP-1R/CHO cells, DiscoverX 95-0062C2) (UniProt P43220 24-463); assay: cell-based or functional assay
T2 sequence (P43220 24-463 limits assumed): as the sequence (P43220 24-463) above

[7] = biological target: T2, GLP-1R (on GLP-1R/CHO cells, DiscoverX …); assay: cell-based or functional assay; remark: listed apart in the source
[8] = male, C57BL/6N, mouse, in vivo, sc
[9] = C57BL/6N male mice, single subcutaneous dose 0.2 mg/5 mL/kg, plasma

CC[C@H](C)[C@H](NC(=O)[C@H](Cc1ccccc1)NC(=O)[C@H](CC(=O)O)NC(=O)[C@H](CCCNC(=N)N)NC(=O)[C@H](C)NC(=O)[C@H](C)NC(=O)[C@H](CC(C)C)NC(=O)[C@H](CC(N)=O)NC(=O)[C@H](CC(=O)O)NC(=O)[C@H](CC(C)C)NC(=O)[C@@H](NC(=O)[C@@H](NC(=O)[C@H](CC(N)=O)NC(=O)[C@H](CCSC)NC(=O)[C@H](CCC(=O)O)NC(=O)[C@H](CC(=O)O)NC(=O)[C@H](CO)NC(=O)[C@H](Cc1ccccc1)NC(=O)[C@H](CO)NC(=O)CNC(=O)[C@H](CC(=O)O)NC(=O)[C@H](C)NC(=O)[C@@H](N)Cc1c[nH]cn1)[C@@H](C)O)[C@@H](C)CC)C(=O)N[C@@H](CC(N)=O)C(=O)N[C@@H](Cc1c[nH]c2ccccc12)C(=O)N[C@@H](CC(C)C)C(=O)N[C@H](C(=O)N[C@@H](CCC(N)=O)C(=O)N[C@H](C(=O)N[C@@H](CCCCN)C(=O)N[C@H](C(=O)N[C@H](C(=O)N[C@@H](CC(=O)O)C(=O)O)[C@@H](C)O)[C@@H](C)CC)[C@@H](C)O)[C@@H](C)CC [GLP-2 (Synthesized), GLP-2, reference compound]
GLP-2 activity Compared to GLP-2 (GLP-2): 100%

CC[C@H](C)[C@H](NC(=O)[C@H](Cc1ccccc1)NC(=O)[C@H](CC(=O)O)NC(=O)[C@H](CCCNC(=N)N)NC(=O)[C@H](C)NC(=O)[C@H](C)NC(=O)[C@H](CC(C)C)NC(=O)[C@H](C)NC(=O)[C@H](CC(=O)O)NC(=O)[C@H](CC(C)C)NC(=O)[C@H](Cc1ccc(O)cc1)NC(=O)[C@@H](NC(=O)[C@H](CO)NC(=O)[C@H](CC(C)C)NC(=O)[C@H](CC(=O)O)NC(=O)[C@H](CO)NC(=O)[C@@H](NC(=O)[C@H](Cc1ccccc1)NC(=O)[C@@H](NC(=O)CNC(=O)[C@H](CCC(=O)O)NC(=O)CNC(=O)[C@@H](N)Cc1c[nH]cn1)[C@@H](C)O)[C@@H](C)O)[C@@H](C)O)C(=O)N[C@@H](CC(N)=O)C(=O)N[C@@H](Cc1c[nH]c2ccccc12)C(=O)N[C@@H](CC(C)C)C(=O)N[C@H](C(=O)N[C@@H](CCC(N)=O)C(=O)N[C@H](C(=O)N[C@@H](CCCCN)C(=O)N[C@H](C(=O)N[C@H](C(=O)N[C@@H](CC(=O)O)C(=O)N[C@@H](CCCCN)C(=O)N[C@@H](CCCCNC(=O)CC[C@H](NC(=O)CCCCCCCCCCCCCCCCCCC(=O)O)C(=O)O)C(=O)O)[C@@H](C)O)[C@@H](C)CC)[C@@H](C)O)[C@@H](C)CC [HU020M2] (HELM PEPTIDE1{H.G.E.G.T.F.T.S.D.L.S.T.Y.L.D.A.L.A.A.R.D.F.I.N.W.L.I.Q.T.K.I.T.D.K.K}|PEPTIDE2{[O=C(O)CCCCCCCCCCCCCCCCCCC(=O)[*:2]].[gGlu]}$PEPTIDE1,PEPTIDE2,35:R3-2:R2$$$V2.0; N-terminus and C-terminus assumed)
GLP-1 activity Compared to GLP-1 (Exendin-4) (GLP-1R): 1.5% | Tmax [1, 8]: 12 h | half-life [1, 8]: 15.9 h | EC50 (GLP-2): > 10000 nM | GLP-2 activity Compared to GLP-2 (GLP-2): ~ 0.02%

CC[C@H](C)[C@H](NC(=O)[C@H](Cc1ccccc1)NC(=O)[C@H](CC(=O)O)NC(=O)[C@H](CCCNC(=N)N)NC(=O)[C@H](C)NC(=O)[C@H](C)NC(=O)[C@H](CC(C)C)NC(=O)[C@H](C)NC(=O)[C@H](CC(=O)O)NC(=O)[C@H](CC(C)C)NC(=O)[C@H](Cc1ccc(O)cc1)NC(=O)[C@@H](NC(=O)[C@H](CO)NC(=O)[C@H](CC(C)C)NC(=O)[C@H](CC(=O)O)NC(=O)[C@H](CO)NC(=O)[C@@H](NC(=O)[C@H](Cc1ccccc1)NC(=O)[C@@H](NC(=O)CNC(=O)[C@H](CCC(=O)O)NC(=O)C(C)(C)NC(=O)[C@@H](N)Cc1c[nH]cn1)[C@@H](C)O)[C@@H](C)O)[C@@H](C)O)C(=O)N[C@@H](CCCCNC(=O)CC[C@H](NC(=O)CCCCCCCCCCCCCCCCC(=O)O)C(=O)O)C(=O)N[C@@H](Cc1ccccc1)C(=O)N[C@@H](C)C(=O)N[C@@H](Cc1c[nH]c2ccccc12)C(=O)N[C@@H](CC(C)C)C(=O)N[C@H](C(=O)N[C@@H](CCC(N)=O)C(=O)N[C@H](C(=O)N[C@@H](CCCCN)C(=O)N[C@H](C(=O)N[C@H](C(=O)N[C@@H](CC(=O)O)C(=O)O)[C@@H](C)O)[C@@H](C)CC)[C@@H](C)O)[C@@H](C)CC [HU020M7] (HELM PEPTIDE1{H.[Aib].E.G.T.F.T.S.D.L.S.T.Y.L.D.A.L.A.A.R.D.F.I.K.F.A.W.L.I.Q.T.K.I.T.D}|PEPTIDE2{[O=C(O)CCCCCCCCCCCCCCCCC(=O)[*:2]].[gGlu]}$PEPTIDE1,PEPTIDE2,24:R3-2:R2$$$V2.0; N-terminus and C-terminus assumed)
GLP-1 activity Compared to GLP-1 (Exendin-4) (GLP-1R): 20.2% | GLP-2 activity Compared to GLP-2 (GLP-2): < 4.0%

CCCCCCCCCCCCCCCC(=O)N[C@@H](CCC(=O)NCCCC[C@H](NC(=O)[C@H](C)NC(=O)[C@H](C)NC(=O)[C@H](CCC(N)=O)NC(=O)CNC(=O)[C@H](CCC(=O)O)NC(=O)[C@H](CC(C)C)NC(=O)[C@H](Cc1ccc(O)cc1)NC(=O)[C@H](CO)NC(=O)[C@H](CO)NC(=O)[C@@H](NC(=O)[C@H](CC(=O)O)NC(=O)[C@H](CO)NC(=O)[C@@H](NC(=O)[C@H](Cc1ccccc1)NC(=O)[C@@H](NC(=O)CNC(=O)[C@H](CCC(=O)O)NC(=O)[C@H](C)NC(=O)[C@@H](N)Cc1c[nH]cn1)[C@@H](C)O)[C@@H](C)O)C(C)C)C(=O)N[C@@H](CCC(=O)O)C(=O)N[C@@H](Cc1ccccc1)C(=O)N[C@H](C(=O)N[C@@H](C)C(=O)N[C@@H](Cc1c[nH]c2ccccc12)C(=O)N[C@@H](CC(C)C)C(=O)N[C@H](C(=O)N[C@@H](CCCNC(=N)N)C(=O)NCC(=O)N[C@@H](CCCNC(=N)N)C(=O)NCC(=O)O)C(C)C)[C@@H](C)CC)C(=O)O [Liraglutide, reference compound]
Blood glucose (C57BL/6 DIO mice [2]): 209.2 ± 26.7 mg/dL | High-density lipoprotein (C57BL/6 DIO mice [2]): 74.7 ± 2.6 mg/dL | Low-density lipoprotein (C57BL/6 DIO mice [2]): 9.7 ± 3.3 mg/dL | Triglyceride (C57BL/6 DIO mice [2]): 9.6 ± 0.8 mg/dL | Cumulative food intake (C57BL/6 DIO mice [3]): 58.5 ± 2.5 g | Weight (C57BL/6 DIO mice [3]): 40.1 ± 4.9 g

GLP-1
half-life (t1/2) [4]: < 2 min

HGEGTFTSDLSTYLDALAAC(+mPEG)DFINWLIQTKITDKK(+C16 FA) (HGEGTFTSDLSTYLDALAAC(mPEG 3.4 kDa)DFINWLIQTKITDKK(C16 fatty acid)) [HU020M6, 3.4kDa maleimidated PEG conjugated to cysteine at position 20, C16 fatty acid]
AUClast [1, 9]: 6508.0 ng·h/mL | Cmax [1, 9]: 433.6 ng/mL | T1/2 [1, 9]: 7.0 h | Tmax [1, 9]: 8.0 h | GLP-2 activity Compared to GLP-2 (GLP-2): ~ 0.02% | EC50 (GLP-2; read-out: GLP-2 activity (EC50)): > 10000 nM

HGEGTFTSDLSTYLDALAARDFINWLIQTKITD [HU020]
EC50 (GLP-2): 650 nM

Semaglutide (peptide)
GLP-1 activity, Compared to GLP-1 (Exendin-4) [5]: 24.5%

B1: HU020 (peptide)
peptide: HGEGTFTSDLSTYLDALAARDFINWLIQTKITD
EC50, cAMP increase in GLP-1R/CHO cells, average (n=4) [6]: 0.0048 nM | Relative to GLP-1 (Exendin-4) %, cAMP in GLP-1R/CHO cells, average (n=4) [6]: 199% | GLP-1 activity (EC50, pM) [7]: 4.15 pM | GLP-1 activity, Compared to GLP-1 (Exendin-4) [7]: 171%

B2: HU020K2FA (peptide)
peptide: HGEGTFTSDLSTYLDALAARDFINWLIQTKITDKK(Palmitoyl)
EC50, cAMP increase in GLP-1R/CHO cells, average (n=4) [6]: 0.0151 nM | Relative to GLP-1 (Exendin-4) %, cAMP in GLP-1R/CHO cells, average (n=4) [6]: 63.4% | GLP-1 activity (EC50, pM) [7]: 30.1 pM | GLP-1 activity, Compared to GLP-1 (Exendin-4) [7]: 23.6%

From EP4741420A1, “PHARMACEUTICAL COMPOSITION FOR PREVENTING OR TREATING OBESITY COMPRISING GLP ANALOGUE AS ACTIVE INGREDIENT” (priority 2023, dated 2025)
